Measured values: patent US20190241669A1 (published 2019)

Columns and labels:
Human BCMA (human) [1] = molecular target: Human BCMA (human) (UniProt Q02223); assay: SPR, IgG on chip, huBCMA analyte
cynomolgus monkey BCMA [2] = molecular target: T1, cynomolgus monkey BCMA (cynomolgus monkey, UniProt A0A2K5UD97 1-53); assay: SPR, IgG on chip, cyBCMA analyte
T1 construct: Soluble analyte in SPR; construct not described; also called cyBCMA; Cyno BCMA

Human BCMA (human) [3] = molecular target: Human BCMA (human) (UniProt Q02223); assay: SPR, IgG immobilised, huBCMA analyte, 37 C
cynomolgus monkey BCMA [4] = molecular target: T1, cynomolgus monkey BCMA; assay: SPR, IgG on chip, cyBCMA analyte, 37C

T1 sequence (A0A2K5UD97 entry or part of it): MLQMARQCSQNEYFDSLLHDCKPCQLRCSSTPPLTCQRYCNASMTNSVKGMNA

Binder | Kd (Human BCMA (human) [1]) | koff (Human BCMA (human) [1]) | kon (Human BCMA (human) [1]) | Kd (cynomolgus monkey BCMA [2]) | koff (cynomolgus monkey BCMA [2]) | kon (cynomolgus monkey BCMA [2]) | Kd (Human BCMA (human) [3]) | T½ (Human BCMA (human) [3]) | koff (Human BCMA (human) [3]) | kon (Human BCMA (human) [3]) | Kd (cynomolgus monkey BCMA [4]) | T½ (cynomolgus monkey BCMA [4]) | koff (cynomolgus monkey BCMA [4]) | kon (cynomolgus monkey BCMA [4])
COMBO_Rd4_6nM_C11 (antibody, V domains shown, IgG) VH: EVQLLESGGGLVQPGGSLRLSCAASGFTFSSYPMSWVRQAPGKGLEWVSAIGGSGGSLGYADSVKGRFTISRDNSKNTLYLQMNSLRAEDTAVYYCARYWPMDSWGQGTLVTVSS VL: EIVLTQSPGTLSLSPGERATLSCRASQSVSPLYLAWYQQKPGQAPRLLMYDASIRATGIPDRFSGSGSGTDFTLTISRLEPEDFAVYYCQQYKAWPLTFGQGTKVEIK | 0.018 nM | 0.000124 s⁻¹ | 6.74e+06 M⁻¹ s⁻¹ | 0.156 nM | 0.000412 s⁻¹ | 2.64e+06 M⁻¹ s⁻¹ | – | – | – | – | – | – | – | –
A02_Rd4_0.6nM_C18 (antibody, V domains shown, IgG) VH: EVQLLESGGGLVQPGGSLRLSCAASGFTFSSYAMNWVRQAPGKGLEWVSAVLDSGGSTYYADSVKGRFTISRDNSKNTLYLQMNSLRAEDTAVYYCARYWPMSLWGQGTLVTVSS VL: EIVLTQSPGTLSLSPGERATLSCRASQSVSELYLAWYQQKPGQAPRLLMYDASIRATGIPDRFSGSGSGTDFTLTISRLEPEDFAVYYCQQYFGWPLTFGQGTKVEIK | 0.048 nM | 0.000229 s⁻¹ | 4.73e+06 M⁻¹ s⁻¹ | 0.197 nM | 0.000639 s⁻¹ | 3.24e+06 M⁻¹ s⁻¹ | – | – | – | – | – | – | – | –
COMBO_Rd4_0.6nM_C22 (antibody, V domains shown, IgG; also called COM22) VH: EVQLLESGGGLVQPGGSLRLSCAASGFTFSSYAMNWVRQAPGKGLEWVSAISDSGGSRWYADSVKGRFTISRDNSKNTLYLQMNSLRAEDTAVYYCTRYWPMDIWGQGTLVTVSS VL: EIVLTQSPGTLSLSPGERATLSCRASVRVSSTYLAWYQQKPGQAPRLLMYDASIRATGIPDRFSGSGSGTDFTLTISRLEPEDFAVYYCQQYMKWPLTFGQGTKVEIK | 0.036 nM | 7.15e-05 s⁻¹ | 1.97e+06 M⁻¹ s⁻¹ | 0.05 nM | 6.66e-05 s⁻¹ | 1.34e+06 M⁻¹ s⁻¹ | – | – | – | – | – | – | – | –
COMBO_Rd4_6nM_C12 (antibody, V domains shown, IgG) VH: EVQLLESGGGLVQPGGSLRLSCAASGFTFSSYPMSWVRQAPGKGLEWVSAALGSGGSTYYADSVKGRFTISRDNSKNTLYLQMNSLRAEDTAVYYCARYWPMDSWGQGTLVTVS VL: EIVLTQSPGTLSLSPGERATLSCRASQSVSASYLAWYQQKPGQAPRLLMYDASIRATGIPDRFSGSGSGTDFTLTISRLEPEDFAVYYCQQYMSWPLTFGQGTKVEIK | 0.02 nM | 0.00027 s⁻¹ | 1.38e+07 M⁻¹ s⁻¹ | 0.148 nM | 0.000486 s⁻¹ | 3.29e+06 M⁻¹ s⁻¹ | – | – | – | – | – | – | – | –
P5C1_VHVL (antibody, V domains shown, IgG; also called PC1) VH: EVQLLESGGGLVQPGGSLRLSCAASGFTFSSYPMSWVRQAPGKGLEWVSAIGGSGGSTYYADSVKGRFTISRDNSKNTLYLQMNSLRAEDTAVYYCARYWPMDSWGQGTLVTVSS VL: EIVLTQSPGTLSLSPGERATLSCRASQSVSSTYLAWYQQKPGQAPRLLIYDASSRAPGIPDRFSGSGSGTDFTLTISRLEPEDFAVYYCQQYSTSPLTFGQGTKVEIK | 5.99 nM | 0.0692 s⁻¹ | 1.16e+07 M⁻¹ s⁻¹ | 15.2 nM | 0.0538 s⁻¹ | 3.53e+06 M⁻¹ s⁻¹ | – | – | – | – | – | – | – | –
P5A2_VHVL (antibody, V domains shown, IgG) VH: EVQLLESGGGLVQPGGSLRLSCAASGFTFSSYAMNWVRQAPGKGLEWVSAISDSGGSTYYADSVKGRFTISRDNSKNTLYLQMNSLRAEDTAVYYCARYWPMDIWGQGTLVTVSS VL: EIVLTQSPGTLSLSPGERATLSCRASQSVSSSYLAWYQQKPGQAPRLLMYDASIRATGIPDRFSGSGSGTDFTLTISRLEPEDFAVYYCQQYGSWPLTFGQGTKVEIK | 5.57 nM | 0.0387 s⁻¹ | 6.96e+06 M⁻¹ s⁻¹ | 10.2 nM | 0.0164 s⁻¹ | 1.61e+06 M⁻¹ s⁻¹ | – | – | – | – | – | – | – | –
COMBO_Rd4_6nM_C25 (antibody, V domains shown, IgG) VH: EVQLLESGGGLVQPGGSLRLSCAASGFTFSSYPMSWVRQAPGKGLEWVSAIGGSGGSTYYADSVKGRFTISRDNSKNTLYLQMNSLRAEDTAVYYCARYWPMDPWGQGTLVTVSS VL: EIVLTQSPGTLSLSPGERATLSCRASQSVSSPYLAWYQQKPGQAPRLLMYDASIRATGIPDRFSGSGSGTDFTLTISRLEPEDFAVYYCQQYQSWPLTFGQGTKVEIK | 0.014 nM | 0.000113 s⁻¹ | 7.98e+06 M⁻¹ s⁻¹ | 0.079 nM | 0.000226 s⁻¹ | 2.85e+06 M⁻¹ s⁻¹ | – | – | – | – | – | – | – | –
COMBO_Rd4_6nM_C21 (antibody, V domains shown, IgG) VH: EVQLLESGGGLVQPGGSLRLSCAASGFTFSSYPMSWVRQAPGKGLEWVSAIGGSGGSLPYADSVKGRFTISRDNSKNTLYLQMNSLRAEDTAVYYCARYWPMDSWGQGTLVTVSS VL: EIVLTQSPGTLSLSPGERATLSCRASQSVSAAYLAWYQQKPGQAPRLLMYDASIRATGIPDRFSGSGSGTDFTLTISRLEPEDFAVYYCQQYMCWPLTFGQGTKVEIK | 0.006 nM | 7.34e-05 s⁻¹ | 1.17e+07 M⁻¹ s⁻¹ | 0.078 nM | 0.000248 s⁻¹ | 3.17e+06 M⁻¹ s⁻¹ | – | – | – | – | – | – | – | –
COMBO_Rd4_6nM_C22 (antibody, V domains shown, IgG) VH: EVQLLESGGGLVQPGGSLRLSCAASGFTFSSYAMNWVRQAPGKGLEWVSACLDSGGSTYYADSVKGRFTISRDNSKNTLYLQMNSLRAEDTAVYYCARYWPMDSWGQGTLVTVSS VL: EIVLTQSPGTLSLSPGERATLSCRASQSVSSSYLAWYQQKPGQAPRLLMYDASIRATGIPDRFSGSGSGTDFTLTISRLEPEDFAVYYCQQYQGWPLTFGQGTKVEIK | 0.256 nM | 0.000775 s⁻¹ | 3.03e+06 M⁻¹ s⁻¹ | 0.972 nM | 0.00165 s⁻¹ | 1.7e+06 M⁻¹ s⁻¹ | – | – | – | – | – | – | – | –
L3.PY/L3.KF/H3.AQ (antibody, V domains shown, IgG) VH: EVQLLESGGGLVQPGGSLRLSCAASGFTFGSYAMTWVRQAPGKGLEWVSAISGSGGNTFYADSVKGRFTISRDNSKNTLYLQMNSLRAEDTAVYYCARVSPIAAQMDYWGQGTLVTVSS VL: EIVLTQSPGTLSLSPGERATLSCRASQSVSSSYLAWYQQKPGQAPRLLIYGASSRATGIPDRFSGSGSGTDFTLTISRLEPEDFAVYYCKFYPYPPSFTFGQGTKVEIK | – | – | – | – | – | – | 0.65 nM | 5.09 min | 0.00227 s⁻¹ | 3.48e+06 M⁻¹ s⁻¹ | 0.93 nM | 4.85 min | 0.00238 s⁻¹ | 2.55e+06 M⁻¹ s⁻¹
L3.PY/L1.FF/H2.LT (antibody, V domains shown, IgG) VH: EVQLLESGGGLVQPGGSLRLSCAASGFTFGSYAMTWVRQAPGKGLEWVSAISLTGGNTFYADSVKGRFTISRDNSKNTLYLQMNSLRAEDTAVYYCARVSPIASGMDYWGQGTLVTVSS VL: EIVLTQSPGTLSLSPGERATLSCRASQSVSSFFLAWYQQKPGQAPRLLIYGASSRATGIPDRFSGSGSGTDFTLTISRLEPEDFAVYYCQHYPYPPSFTFGQGTKVEIK | – | – | – | – | – | – | 0.51 nM | 6.92 min | 0.00167 s⁻¹ | 3.3e+06 M⁻¹ s⁻¹ | 1.56 nM | 3.38 min | 0.00341 s⁻¹ | 2.19e+06 M⁻¹ s⁻¹
L3.PY/L1.FF/H2.QR (antibody, V domains shown, IgG) VH: EVQLLESGGGLVQPGGSLRLSCAASGFTFGSYAMTWVRQAPGKGLEWVSAISGSGGNTFYADQRKGRFTISRDNSKNTLYLQMNSLRAEDTAVYYCARVSPIASGMDYWGQGTLVTVSS VL: EIVLTQSPGTLSLSPGERATLSCRASQSVSSFFLAWYQQKPGQAPRLLIYGASSRATGIPDRFSGSGSGTDFTLTISRLEPEDFAVYYCQHYPYPPSFTFGQGTKVEIK | – | – | – | – | – | – | 0.51 nM | 6.54 min | 0.00177 s⁻¹ | 3.47e+06 M⁻¹ s⁻¹ | 1.65 nM | 2.75 min | 0.00421 s⁻¹ | 2.55e+06 M⁻¹ s⁻¹
L3.PY/L1.AH/H3.TAQ (antibody, V domains shown, IgG) VH: EVQLLESGGGLVQPGGSLRLSCAASGFTFGSYAMTWVRQAPGKGLEWVSAISGSGGNTFYADSVKGRFTISRDNSKNTLYLQMNSLRAEDTAVYYCTRVSPIAAQMDYWGQGTLVTVSS VL: EIVLTQSPGTLSLSPGERATLSCRASQSVSAHYLAWYQQKPGQAPRLLIYGASSRATGIPDRFSGSGSGTDFTLTISRLEPEDFAVYYCQHYPYPPSFTFGQGTKVEIK | – | – | – | – | – | – | 0.37 nM | 9.68 min | 0.00119 s⁻¹ | 3.27e+06 M⁻¹ s⁻¹ | 1.32 nM | 3.83 min | 0.00302 s⁻¹ | 2.28e+06 M⁻¹ s⁻¹
L3.PY/L1.FF/H2.DY (antibody, V domains shown, IgG) VH: EVQLLESGGGLVQPGGSLRLSCAASGFTFGSYAMTWVRQAPGKGLEWVSAIDYSGGNTFYADSVKGRFTISRDNSKNTLYLQMNSLRAEDTAVYYCARVSPIASGMDYWGQGTLVTVSS VL: EIVLTQSPGTLSLSPGERATLSCRASQSVSSFFLAWYQQKPGQAPRLLIYGASSRATGIPDRFSGSGSGTDFTLTISRLEPEDFAVYYCQHYPYPPSFTFGQGTKVEIK | – | – | – | – | – | – | 0.65 nM | 4.27 min | 0.00271 s⁻¹ | 4.14e+06 M⁻¹ s⁻¹ | 1.88 nM | 2.31 min | 0.005 s⁻¹ | 2.66e+06 M⁻¹ s⁻¹
L3.PY/L1.FF/H2.HA (antibody, V domains shown, IgG) VH: EVQLLESGGGLVQPGGSLRLSCAASGFTFGSYAMTWVRQAPGKGLEWVSAISHAGGNTFYADSVKGRFTISRDNSKNTLYLQMNSLRAEDTAVYYCARVSPIASGMDYWGQGTLVTVSS VL: EIVLTQSPGTLSLSPGERATLSCRASQSVSSFFLAWYQQKPGQAPRLLIYGASSRATGIPDRFSGSGSGTDFTLTISRLEPEDFAVYYCQHYPYPPSFTFGQGTKVEIK | – | – | – | – | – | – | 0.63 nM | 5.29 min | 0.00219 s⁻¹ | 3.49e+06 M⁻¹ s⁻¹ | 1.79 nM | 2.77 min | 0.00417 s⁻¹ | 2.33e+06 M⁻¹ s⁻¹
L3.PY/L1.FF/H2.QL (antibody, V domains shown, IgG) VH: EVQLLESGGGLVQPGGSLRLSCAASGFTFGSYAMTWVRQAPGKGLEWVSAISGSGGNTFYADQLKGRFTISRDNSKNTLYLQMNSLRAEDTAVYYCARVSPIASGMDYWGQGTLVTVSS VL: EIVLTQSPGTLSLSPGERATLSCRASQSVSSFFLAWYQQKPGQAPRLLIYGASSRATGIPDRFSGSGSGTDFTLTISRLEPEDFAVYYCQHYPYPPSFTFGQGTKVEIK | – | – | – | – | – | – | 0.4 nM | 8.28 min | 0.0014 s⁻¹ | 3.48e+06 M⁻¹ s⁻¹ | 1.91 nM | 2.57 min | 0.00449 s⁻¹ | 2.36e+06 M⁻¹ s⁻¹
